Source: patent publication US20220041738A1 (SAITAMA MEDICAL UNIVERSITY, published 2022)

T1: human ALK2-R375P on cells (human, UniProt Q04771 21-509)
T1 sequence: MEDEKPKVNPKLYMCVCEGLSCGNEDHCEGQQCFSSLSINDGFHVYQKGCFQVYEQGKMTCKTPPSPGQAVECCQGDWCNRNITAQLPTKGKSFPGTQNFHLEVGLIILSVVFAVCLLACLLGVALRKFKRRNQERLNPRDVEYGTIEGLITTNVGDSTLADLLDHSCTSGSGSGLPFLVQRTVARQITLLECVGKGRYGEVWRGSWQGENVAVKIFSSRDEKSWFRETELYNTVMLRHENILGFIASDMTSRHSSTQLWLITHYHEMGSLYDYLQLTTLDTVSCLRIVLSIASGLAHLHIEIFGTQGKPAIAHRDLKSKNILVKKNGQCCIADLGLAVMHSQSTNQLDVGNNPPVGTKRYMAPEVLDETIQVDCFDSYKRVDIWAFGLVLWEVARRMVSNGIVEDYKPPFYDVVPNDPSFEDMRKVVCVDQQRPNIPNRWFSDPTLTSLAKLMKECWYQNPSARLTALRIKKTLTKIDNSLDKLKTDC

T2: human ALK2-Q207E on cells (human, UniProt Q04771 21-509)
T2 sequence: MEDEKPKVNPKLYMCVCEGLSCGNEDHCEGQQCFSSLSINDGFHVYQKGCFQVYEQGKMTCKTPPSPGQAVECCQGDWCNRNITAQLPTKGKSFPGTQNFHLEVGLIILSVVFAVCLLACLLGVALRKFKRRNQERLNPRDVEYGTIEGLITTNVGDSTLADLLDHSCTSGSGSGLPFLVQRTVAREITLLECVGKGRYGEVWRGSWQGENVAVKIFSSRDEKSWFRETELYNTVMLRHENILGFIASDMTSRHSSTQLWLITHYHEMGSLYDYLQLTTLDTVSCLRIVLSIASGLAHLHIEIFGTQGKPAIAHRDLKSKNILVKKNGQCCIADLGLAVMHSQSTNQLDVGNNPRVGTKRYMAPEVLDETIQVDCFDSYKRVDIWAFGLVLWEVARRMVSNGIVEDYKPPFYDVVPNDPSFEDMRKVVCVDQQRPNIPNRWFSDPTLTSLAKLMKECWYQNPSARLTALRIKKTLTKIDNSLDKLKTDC

T3: human ALK2-G325A on cells (human, UniProt Q04771 21-509)
T3 sequence: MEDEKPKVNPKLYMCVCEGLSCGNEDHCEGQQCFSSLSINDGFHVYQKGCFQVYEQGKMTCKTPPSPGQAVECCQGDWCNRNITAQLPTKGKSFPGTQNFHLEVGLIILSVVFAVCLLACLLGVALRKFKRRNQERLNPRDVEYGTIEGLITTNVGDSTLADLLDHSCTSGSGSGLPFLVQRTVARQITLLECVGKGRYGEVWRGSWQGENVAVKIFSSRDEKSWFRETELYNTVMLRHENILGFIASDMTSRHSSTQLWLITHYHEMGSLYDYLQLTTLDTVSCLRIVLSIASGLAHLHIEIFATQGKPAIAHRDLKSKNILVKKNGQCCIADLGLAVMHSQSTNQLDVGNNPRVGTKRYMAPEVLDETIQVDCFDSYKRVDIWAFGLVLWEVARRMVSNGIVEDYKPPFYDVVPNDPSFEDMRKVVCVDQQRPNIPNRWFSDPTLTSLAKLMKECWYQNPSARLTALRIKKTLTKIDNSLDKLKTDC

T4: human ALK2-G328E on cells (human, UniProt Q04771 21-509)
T4 sequence: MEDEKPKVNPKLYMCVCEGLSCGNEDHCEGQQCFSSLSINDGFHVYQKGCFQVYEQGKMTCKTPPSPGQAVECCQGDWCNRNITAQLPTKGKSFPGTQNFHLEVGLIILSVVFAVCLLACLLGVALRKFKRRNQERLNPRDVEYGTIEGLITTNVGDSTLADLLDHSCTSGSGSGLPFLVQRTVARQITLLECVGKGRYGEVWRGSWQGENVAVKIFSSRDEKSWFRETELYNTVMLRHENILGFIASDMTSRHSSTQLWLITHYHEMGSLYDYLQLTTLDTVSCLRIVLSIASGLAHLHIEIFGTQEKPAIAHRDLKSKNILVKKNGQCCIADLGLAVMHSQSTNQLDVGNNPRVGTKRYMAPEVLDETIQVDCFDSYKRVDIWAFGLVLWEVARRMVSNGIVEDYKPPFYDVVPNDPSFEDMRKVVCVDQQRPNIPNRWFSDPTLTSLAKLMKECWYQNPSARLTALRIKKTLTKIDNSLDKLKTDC


Experiments:
Assay in all cases: immunofluorescence (legend of FIG. 4)
[1] = biological target: T1, human ALK2-R375P on cells
Method: (§1) Mouse C2C12 cells were seeded into a 96-well plate (Greiner Bio-One) at 0.5×10³ cells/well, and cultured in 15% FBS-containing DMEM medium overnight under the conditions of 5% CO₂ at 37° C. On the following day, the C2C12 cells were transfected with each of a wild-type human ALK2 cDNA integrated into pcDEF3; pcDEF3/human ALK2-L196P, pcDEF3/human ALK2-P197_F198delinsL, pcDEF3/human ALK2-R202I, pcDEF3/human ALK2-R206H, pcDEF3/human ALK2-Q207E, pcDEF3/human ALK2-R258S, pcDEF3/human ALK2-G325A, pcDEF3/human ALK2-G328E, pcDEF3/human ALK2-G328R, pcDEF3/human ALK2-G328W, pcDEF3/human ALK2-G356D, and pcDEF3/human ALK2-R375P, which are variants identified in FOP; and pcDEF3 as a control, using Lipofectamine 2000 (Invitrogen), and further cultured overnight.
(§2) The C2C12 cells were fixed with 10% neutral formalin (Nacalai Tesque, Japan) for 20 minutes at room temperature, and then blocked with 10% goat normal serum for 30 minutes. After the blocking agent was removed, purified IgG diluted to 10 μg/mL with the blocking agent was added, and the cells were left for 1 hour at room temperature. After the cells were washed with PBS three times, Goat Alexa 594-conjugated anti-rat IgG (Invitrogen) diluted to 1:1000 with the blocking agent was added, and the cells were left for 1 hour at room temperature. After the cells were washed with PBS three times, the cells were fixed with 10% neutral formalin for 15 minutes at room temperature, and nuclear-stained with DAPI (LifeTechnologies). Fluorescent signals were analyzed with a fluorescence microscope BZ-9000 (Keyence).

[2] = biological target: T2, human ALK2-Q207E on cells
Method: as §1, §2

[3] = biological target: T3, human ALK2-G325A on cells
Method: as §1, §2

[4] = biological target: T4, human ALK2-G328E on cells
Method: as §1, §2

binding result [1]	binding result [2]	binding result [3]	binding result [4]	Binder
binds	binds	binds	binds	rat anti-ALK2 monoclonal antibody A2-15A (antibody, V domains shown, Rat monoclonal IgG from a hybridoma; also called 15A6) VH: EVQLVESGGGLVQPGRSLKLSCAASGFTFSHYYMAWVRQAPTKGLEWVASITNSGGSINYRDSVKGRFTISRDNAKSTLYLQMDSLRSEDTATYYCTREGGENYGGYPPFAYWGQGTLVTVSS VL: DIVLTQSPALAVSLGQRATISCRANQGVSLSRYNLMHWYQQKPGQKPKLLIYRSSNLASGIPARFSGSGSGTDFTLTINPVQADDIATYYCQQSRESPFTFGAGTKLELKR
binds	binds	binds	binds	rat anti-ALK2 monoclonal antibody A2-11E (antibody, V domains shown, Rat monoclonal IgG from a hybridoma; also called 11E2) VH: EVQLVETGGGLVQPGRSLKLSCVASGFTFSNYYMYWIRQAPGKGLEWISSINTDGGSTYYPDSVKGRFAISRDNAENTVYLQMNSLRSEDTATYYCAKSTPNIPLAYWGQGTLVTVSS VL: DIQMTQSPSLLSASVGDRVTLSCKASQNIYKYLNWFQQKLGEAPKLLIYYSNSLQTGIPSRFSGSGSGTDFTLTISSLQPEDVAIYFCFQYSSGPTFGPGTKLELKR
